B1: TrfB transcriptional repressor protein (Escherichia coli), P03052 (parent)
chain: MKKRLTESQFQEAIQGLEVGQQTIEIARGVLVDGKPQATFATSLGLTRGAVSQAVHRVWAAFEDKNLPEGYARVTAVLPEHQAYIVRKWEADAKKKQETKR

Variants of: B1
Conditions: with korb2_ecolx korB

effect of a mutation on the interaction | Variant
disrupting interaction strength | MKKRLTESQFQEAIQGLEVGQQTIEIARGVLVDGKPQATFATSLGLTRGAVSQAVHRVWAAFEDKNLPEGYARVTAVLPEHQAAIVRKWEADAKKKQETKR
decreasing interaction strength | MKKRLTESQFQEAIQGLEVGQQTIEIARGVLVDGKPQATFATSLGLTRGAVSQAVHRVWAAFEDKNLPEGYARVTAVLPEHAAYIVRKWEADAKKKQETKR

More lines, now with the values behind:

Variant | effect of a mutation on the interaction
MKKRLTESQFQEAIQGLEVGQQTIEIARGVLVDGKPQATFATSLGLTRGAVSQAVHRVWAAFEDKNLPEGYARVTAVAPEHQAYIVRKWEADAKKKQETKR | disrupting interaction strength
MKKRLTESQFQEAIQGLEVGQQTIEIARGVLVDGKPQATFATSLGLTRGAVSQAVHRVWAAFEDKNLPEGYARATAVLPEHQAYIVRKWEADAKKKQETKR | disrupting interaction strength
MKKRLTESQFQEAIQGLEVGQQTIEIARGVLVDGKPQATFATSLGLTRGAVSQAVHRVWAAFEDKNLAEGYARVTAVLPEHQAYIVRKWEADAKKKQETKR | decreasing interaction strength
